Biological target: SV2A (SV2)
Test: SV-PD (synaptic vesicle pull-down) with blocking peptide, immunoblot densitometry
Conditions: pull down w/ C3WildF (m1), lower value = stronger block of SV capture by the peptide, parent: est. 39, read off a plot

… mimetic blocking peptide (CaV2.2 aa 2319-2328) V6A; P7A; N8A; G9A; Y10A
other: SV2 capture by C3WildF in presence of peptide (% SH3) (N = 5): 44 % SH3

… mimetic blocking peptide (CaV2.2 aa 2319-2328) V6G; P7A; N8A; G9A; Y10G
other: SV2 capture by C3WildF in presence of peptide (% SH3) (N = 6): 28 % SH3

… mimetic blocking peptide (CaV2.2 aa 2319-2328) H1G; Q2G; V6A; P7G; N8G; Y10A
other: SV2 capture by C3WildF in presence of peptide (% SH3) (N = 8): 74 % SH3

… mimetic blocking peptide (CaV2.2 aa 2319-2328) R4G; R5G; V6A; P7G; N8G; Y10A
other: SV2 capture by C3WildF in presence of peptide (% SH3) (N = 8): 110 % SH3

… mimetic blocking peptide (CaV2.2 aa 2319-2328) H1A; Q2A
other: SV2 capture by C3WildF in presence of peptide (% SH3) (N = 8): 58 % SH3

… mimetic blocking peptide (CaV2.2 aa 2319-2328) V6A; P7G; N8G; Y10A
other: SV2 capture by C3WildF in presence of peptide (% SH3) (N = 7): 41 % SH3

… mimetic blocking peptide (CaV2.2 aa 2319-2328) R4A; R5A
other: SV2 capture by C3WildF in presence of peptide (% SH3) (N = 3): 83 % SH3

… mimetic blocking peptide (CaV2.2 aa 2319-2328) V6G; Y10G
other: SV2 capture by C3WildF in presence of peptide (% SH3) (N = 6): 44 % SH3

… mimetic blocking peptide (CaV2.2 aa 2319-2328) V6A; Y10A
other: SV2 capture by C3WildF in presence of peptide (% SH3) (N = 8): 29 % SH3

— paper PMC4899477
